In US20250009913A1, “COMPOUNDS FOR USE IN NON-COVALENT SCAFFOLD AND METHODS RELATED THERETO” (NORTH CAROLINA STATE UNIVERSITY, priority 2023, published 2025):
Where two headings read alike, the source gives them in different places.

What was measured:
[1] = Fluorescence spectroscopy of aggregation (intensity in PBS vs DMSO); type: physicochemical; conditions: 316 nM in PBS; incomplete aggregation
Procedure: Aggregation of 5′ at low concentrations was analyzed by fluorescence spectroscopy. The ratio of maximum fluorescence intensity of samples in PBS to that of sample in DMSO was plotted against concentration (FIG. 9). The ratio decreased as the concentration increased in the range of 1.0 nM to 316 nM, which implies that 5′ aggregates more in PBS as the concentration increases. Even with the concentration of 316 nM, the sample didn't aggregate completely in PBS and retained ˜30% fluorescence. The long PEG chain in 5′ provides the compound with good hydrophilicity and may contribute to incomplete aggregation. Fluorescence intensity at higher or lower concentrations was not measured due to the detection range of the instrument. The porphyrin-peptide conjugate without PEG chain, 4′, was examined by fluorescence intensity as well. Samples at 31.6 nM, 100 nM, and 316 nM were analyzed and the fluorescence intensity ratio of all samples was below 2%. The results imply that 4′ almost aggregates completely even at a very low concentration.
Fluorescence spectroscopy. Samples were dissolved in PBS and DMSO at different concentrations. The excitation wavelength was 419 nm for all samples in DMSO, 415 nm for 5′ in PBS, and 419 nm for 4′ in PBS. The intensity ratio was calculated with the maximum emission of each sample. […]

[2] = Absorption spectroscopy in PBS or DMSO (solubility / aggregation); type: physicochemical; conditions: PBS; absorption spectra 0.1-100 μM; read-out: soluble in PBS with essentially no aggregation or assembly
Procedure: Samples of 5′ at 1 μM in DMSO or PBS were analyzed by absorption spectroscopy (FIG. 8, panel A). […] In PBS, two broad peaks at 417 nm and 455 nm were observed, indicating aggregation of the sample at 1 μM. Samples of 4′ at 1 μM in DMSO or PBS were also analyzed for comparison (FIG. 8, panel B). The spectrum of the sample in DMSO was identical with 5′, while in PBS the Soret band spilt into 3 broad peaks at 409 nm, 419 nm and 455 nm. The different spectra between 4′ and 5′ might result from different ways of porphyrin stacking, as 4′ doesn't have the long PEG chain in its structure.
Samples of 0.1 μM, 1 μM, 10 μM and 100 μM were analyzed using cuvettes with a pathlength of 10 cm, 1 cm, 0.1 cm and 0.01 cm, respectively. There is only a very slight broadening of the absorption bands at 100 μM, and at all concentrations the general spectroscopic features characteristic of the porphyrin are retained.

[3] = target: T1, alkaline phosphatase (ALP) (Bos taurus, UniProt P19111); experiment: Enzymatic cleavage of 5 by ALP monitored by reverse-phase HPLC; type: biochemical, bovine; conditions: 200 μM in PBS, 2 U/mL ALP, 37° C., 6-hour incubation
T1 construct: Alkaline phosphatase from bovine intestinal mucosa was purchased from Sigma-Aldrich; purchased Sigma-Aldrich; host or cells: bovine intestinal mucosa (tissue-derived)
Procedure: The enzymatic cleavage was monitored with reverse-phase high performance liquid chromatography. A solution of 200 μM 5 in PBS was treated with 2 U/mL ALP and incubated at 37° C. A small part of sample was taken from the reaction at different time points (30 min, 1 h, 2 h, 4 h, 6 h and 8 h) and was analyzed by HPLC (5-95% MeCN/10 mM NH4HCO3 in H2O) (FIG. 7). The 3 peaks in the chromatograph after 30 min of ALP treatment represents compound 5 (peak 1), partially cleaved product (peak 2) and fully cleaved product (peak 3). The reaction almost completes after 6-hour incubation (>95% by integration). The LC trace of the standard dephosphorylated sample 5′ is shown for comparison. Attempts were made to get LC-MS data for 5 but no mass signal was detected. This might result from the poor solubility of 5 in the acidic mobile phase (MeCN/H2O, 0.1% FA).
Reverse phase high performance liquid chromatography. A solution of 200 μM 5 in PBS was treated with 2 U/mL ALP and incubated at 37° C. A small part of sample was taken from the reaction at different time points (30 min, 1 h, 2 h, 4 h, 6 h and 8 h) and was analyzed by RP-HPLC with an Agilent Zorbax SB-C18 column (5 μm, 4.6×150 mm). The sample was run for 15 min with a linear gradient (5-95% MeCN/10 mM NH4HCO3 in H2O) and detected with a diode-array detector at 420 nm.

[4] = target: T1, alkaline phosphatase (ALP); experiment: Enzymatic assay of 5 with alkaline phosphatase, aggregation followed by absorption spectroscopy; type: biochemical, bovine
Procedure: The stock solution of 5 in DMSO was diluted with PBS to prepare sample solutions with different concentrations (0.10 μM, 0.20 μM, 0.50 μM, 1.0 μM, 2.0 μM, and 5.0 μM). Each sample was treated with 2 U/mL of alkaline phosphatase (ALP) and incubated overnight at 37° C. The absorption spectra across the range 300-700 nm, where the porphyrin absorbs strongly, were measured before and after the enzyme treatment for each sample (FIG. 4, panels A-F). For samples with concentration lower than 0.50 μM (FIG. 4, panels A, B), the intensity of the Soret band of 5 at 420 nm decreased after enzyme treatment, yet precipitation or other signs of aggregation were not observed. When the concentration of the sample was equal to or higher than 0.50 μM (FIG. 4, panels C-F), the intensity of the Soret peak at 420 nm decreased and a new peak appeared at 455 nm after the enzyme treatment. The new peak at 455 nm indicates the aggregation of the sample upon the treatment of ALP. The Q band (at ˜550 nm) also underwent a bathochromic shift and broadening, albeit of lesser magnitude than that of the higher-energy Soret band. Compound 5′, which lacks the two phosphoester moieties, is prone to aggregation in PBS, consistent with the observed results for ALP treatment of 5. The change in the color of the sample was also observed. After the overnight incubation, the color of the sample changed from pink to orange.
To confirm that the peak appeared after enzyme treatment was caused by aggregation, DMSO was added to the sample of 5 (5.0 μM in PBS) after enzyme treatment to disaggregate the sample. After adding DMSO to dilute the solution in half, the peak at 455 nm almost disappeared and the intensity of the peak at 420 nm increased. Color changes of the solution were observed during the treatment, with the solution appearing pink initially (indicating a monomeric state), then yellow after treatment with ALP (indicating aggregation), and finally returning to pink after dilution with DMSO, albeit a lighter pink than the initial solution, due to dilution (indicating disaggregation). The result further confirmed that compound 5 aggregates in aqueous solution after the enzyme treatment.
Enzymatic assay. The stock solution of 5 in DMSO (2 mM) was diluted with PBS to prepare sample solutions with different concentrations. The final concentrations of 5 in each sample were 0.20 μM, 0.50 μM, 1.0 μM, 2.0 μM, 5.0 μM and 10 μM, respectively. A solution of alkaline phosphatase from bovine intestinal mucosa (10 μL, 100 U/mL in PBS) was added to each sample solution to reach a final volume of 500 μL (PBS containing 0.5% DMSO). The reaction mixture was incubated overnight at 37° C. Then each sample was analyzed by absorption spectroscopy. Samples without the treatment of ALP were also analyzed to serve as controls.
To confirm the aggregation of the dephosphorylated 5 in PBS, 500 μL of DMSO was added to one of the treated samples (10 μM) and was then analyzed by absorption spectroscopy.

[5] = test system: alkaline phosphatase (ALP); conditions: 10 μM in PBS, 10 min at 10000 rpm
Procedure: Samples of 5 (10 μM in PBS) with or without ALP treatment were centrifuged with Amicon centrifugation devices (molecular cutoff 50 kDa). […] Solutions collected in the bottom or top tube for the sample that underwent enzyme treatment were analyzed with absorption spectroscopy (FIG. 5).

T1 sequence (P19111 20-506 limits assumed): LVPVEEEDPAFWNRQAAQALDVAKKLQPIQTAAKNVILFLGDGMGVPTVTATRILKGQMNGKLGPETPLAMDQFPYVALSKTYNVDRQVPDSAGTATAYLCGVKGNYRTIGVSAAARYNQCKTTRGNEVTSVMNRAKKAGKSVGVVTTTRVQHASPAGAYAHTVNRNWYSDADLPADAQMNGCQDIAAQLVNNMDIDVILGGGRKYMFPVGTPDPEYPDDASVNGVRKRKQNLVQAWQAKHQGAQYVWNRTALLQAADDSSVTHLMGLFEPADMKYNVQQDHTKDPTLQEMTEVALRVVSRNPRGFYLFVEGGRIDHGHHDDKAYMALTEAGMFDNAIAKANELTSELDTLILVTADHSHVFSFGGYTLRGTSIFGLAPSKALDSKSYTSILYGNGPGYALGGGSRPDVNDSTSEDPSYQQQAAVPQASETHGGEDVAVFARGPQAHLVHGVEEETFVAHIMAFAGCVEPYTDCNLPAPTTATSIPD

PEG24-GffY-OH [Compound 5′]
fluorescence retained in PBS (relative to DMSO) [1]: ~30%

COCCOCCOCCOCCOCCOCCOCCOCCOCCOCCOCCOCCOCCOCCOCCOCCOCCOCCOCCOCCOCCOCCOCCOCCn1cc(-c2ccc(-c3c4nc(cc5ccc([nH]5)c(-c5c(OCc6cn(CCC(=O)NCC(=O)N[C@H](Cc7ccccc7)C(=O)N[C@H](Cc7ccccc7)C(=O)N[C@@H](Cc7ccc(OP(=O)(O)O)cc7)C(=O)O)nn6)cccc5OCc5cn(CCC(=O)NCC(=O)N[C@H](Cc6ccccc6)C(=O)N[C@H](Cc6ccccc6)C(=O)N[C@@H](Cc6ccc(OP(=O)(O)O)cc6)C(=O)O)nn5)c5nc(cc6ccc3[nH]6)C=C5)C=C4)cc2)nn1 [Compound 5, PEG24-GffY(p)-OH]
solubility [2]: ≥ 100 µM
completion of dephosphorylation reaction by HPLC integration [3]: > 95%
behaviour of activated form at very low concentration ([4]; 0.1 μM): came out of solution without forming a gel superstructure
concentration at which new peak at 455 nm (aggregation) appears after enzyme treatment ([4]; PBS with 0.5% DMSO, 2 U/mL ALP, overnight 37° C.): ≥ 500 nM
reversibility of aggregation ([4]; after ALP treatment in PBS, upon addition of DMSO): reversible
precipitation after high-speed centrifugation or long-time storage ([4]; after ALP treatment, centrifugation >10000 rpm or storage >1 month): No precipitation or microcrystals were observed
formation of microcrystals or precipitates upon ALP treatment ([4]; concentration as high as 200 μM): did not form microcrystals or precipitates
passage through 50 kDa membrane ([5]; after ALP treatment): didn't pass through the membrane
passage through 50 kDa membrane ([5]; without ALP treatment): passed through the 50 kDa membrane
